Measurements published in the supplement of paper PMC10065799, “High-throughput profiling of sequence recognition by tyrosine kinases and SH2 domains using bacterial peptide display” (eLife, 2023).

Assays:
AncSZ = experiment: phosphorylation enrichment, bacterial display (enrichment ratio); higher = better substrate or ligand; peptides without Tyr show the background
EPHB1 = EPHB1 (UniProt P54762); experiment: as above
EPHB2 = EPHB2 (UniProt P29323); experiment: as above
FGFR1 = FGFR1 (UniProt P11362); experiment: as above
Chain of FGFR1 (P11362 whole entry, looked up): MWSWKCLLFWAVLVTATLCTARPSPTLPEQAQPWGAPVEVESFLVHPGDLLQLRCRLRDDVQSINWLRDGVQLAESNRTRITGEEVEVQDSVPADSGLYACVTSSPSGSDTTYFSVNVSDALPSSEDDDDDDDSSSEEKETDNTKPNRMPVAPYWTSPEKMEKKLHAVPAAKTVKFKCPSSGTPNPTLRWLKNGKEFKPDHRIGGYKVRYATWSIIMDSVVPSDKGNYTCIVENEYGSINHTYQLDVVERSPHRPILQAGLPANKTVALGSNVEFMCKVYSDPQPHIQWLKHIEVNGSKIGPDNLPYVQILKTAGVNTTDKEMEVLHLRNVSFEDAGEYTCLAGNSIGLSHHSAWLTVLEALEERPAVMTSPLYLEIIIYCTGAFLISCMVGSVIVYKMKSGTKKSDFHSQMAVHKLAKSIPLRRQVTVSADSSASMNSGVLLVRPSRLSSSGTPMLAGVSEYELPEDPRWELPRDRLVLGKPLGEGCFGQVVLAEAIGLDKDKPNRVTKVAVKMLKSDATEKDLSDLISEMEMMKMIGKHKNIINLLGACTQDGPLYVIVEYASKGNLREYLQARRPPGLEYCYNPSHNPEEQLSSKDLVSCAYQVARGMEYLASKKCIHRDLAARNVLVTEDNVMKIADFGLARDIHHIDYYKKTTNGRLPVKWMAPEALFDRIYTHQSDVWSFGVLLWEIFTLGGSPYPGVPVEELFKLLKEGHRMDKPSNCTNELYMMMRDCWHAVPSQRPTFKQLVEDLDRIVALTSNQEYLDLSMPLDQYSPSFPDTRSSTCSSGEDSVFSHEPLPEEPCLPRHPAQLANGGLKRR

FGFR3 = FGFR3 (UniProt P22607); experiment: as above
Chain of FGFR3 (P22607 whole entry, looked up): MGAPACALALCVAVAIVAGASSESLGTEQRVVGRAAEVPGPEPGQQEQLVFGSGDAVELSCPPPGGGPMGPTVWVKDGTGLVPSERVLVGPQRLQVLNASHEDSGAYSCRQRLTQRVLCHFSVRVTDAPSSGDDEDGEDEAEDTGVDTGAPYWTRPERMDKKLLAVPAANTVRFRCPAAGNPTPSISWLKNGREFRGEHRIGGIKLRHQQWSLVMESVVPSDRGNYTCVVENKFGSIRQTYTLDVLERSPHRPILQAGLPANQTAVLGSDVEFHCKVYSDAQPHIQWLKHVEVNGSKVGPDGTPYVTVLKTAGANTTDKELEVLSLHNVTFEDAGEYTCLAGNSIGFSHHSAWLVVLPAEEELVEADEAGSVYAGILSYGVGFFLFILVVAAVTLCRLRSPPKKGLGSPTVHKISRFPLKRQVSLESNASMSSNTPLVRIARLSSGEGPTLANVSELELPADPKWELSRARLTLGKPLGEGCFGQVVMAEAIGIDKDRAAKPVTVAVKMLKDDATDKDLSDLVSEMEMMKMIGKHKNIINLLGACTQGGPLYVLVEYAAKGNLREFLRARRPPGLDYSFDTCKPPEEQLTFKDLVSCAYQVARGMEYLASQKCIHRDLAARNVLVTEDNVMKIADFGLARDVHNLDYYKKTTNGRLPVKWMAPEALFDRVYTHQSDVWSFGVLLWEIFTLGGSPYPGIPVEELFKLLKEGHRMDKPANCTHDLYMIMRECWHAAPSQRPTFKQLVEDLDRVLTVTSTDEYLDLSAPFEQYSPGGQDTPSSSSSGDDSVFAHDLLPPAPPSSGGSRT

Fer (mouse) = experiment: as above
Fes = Fes (UniProt P07332); experiment: as above
Fyn = Fyn (UniProt P06241); experiment: as above
Hck = Hck (UniProt P08631); experiment: as above
Jak2 = Jak2 (UniProt O60674); experiment: as above
Chain of Jak2 (O60674 whole entry, looked up): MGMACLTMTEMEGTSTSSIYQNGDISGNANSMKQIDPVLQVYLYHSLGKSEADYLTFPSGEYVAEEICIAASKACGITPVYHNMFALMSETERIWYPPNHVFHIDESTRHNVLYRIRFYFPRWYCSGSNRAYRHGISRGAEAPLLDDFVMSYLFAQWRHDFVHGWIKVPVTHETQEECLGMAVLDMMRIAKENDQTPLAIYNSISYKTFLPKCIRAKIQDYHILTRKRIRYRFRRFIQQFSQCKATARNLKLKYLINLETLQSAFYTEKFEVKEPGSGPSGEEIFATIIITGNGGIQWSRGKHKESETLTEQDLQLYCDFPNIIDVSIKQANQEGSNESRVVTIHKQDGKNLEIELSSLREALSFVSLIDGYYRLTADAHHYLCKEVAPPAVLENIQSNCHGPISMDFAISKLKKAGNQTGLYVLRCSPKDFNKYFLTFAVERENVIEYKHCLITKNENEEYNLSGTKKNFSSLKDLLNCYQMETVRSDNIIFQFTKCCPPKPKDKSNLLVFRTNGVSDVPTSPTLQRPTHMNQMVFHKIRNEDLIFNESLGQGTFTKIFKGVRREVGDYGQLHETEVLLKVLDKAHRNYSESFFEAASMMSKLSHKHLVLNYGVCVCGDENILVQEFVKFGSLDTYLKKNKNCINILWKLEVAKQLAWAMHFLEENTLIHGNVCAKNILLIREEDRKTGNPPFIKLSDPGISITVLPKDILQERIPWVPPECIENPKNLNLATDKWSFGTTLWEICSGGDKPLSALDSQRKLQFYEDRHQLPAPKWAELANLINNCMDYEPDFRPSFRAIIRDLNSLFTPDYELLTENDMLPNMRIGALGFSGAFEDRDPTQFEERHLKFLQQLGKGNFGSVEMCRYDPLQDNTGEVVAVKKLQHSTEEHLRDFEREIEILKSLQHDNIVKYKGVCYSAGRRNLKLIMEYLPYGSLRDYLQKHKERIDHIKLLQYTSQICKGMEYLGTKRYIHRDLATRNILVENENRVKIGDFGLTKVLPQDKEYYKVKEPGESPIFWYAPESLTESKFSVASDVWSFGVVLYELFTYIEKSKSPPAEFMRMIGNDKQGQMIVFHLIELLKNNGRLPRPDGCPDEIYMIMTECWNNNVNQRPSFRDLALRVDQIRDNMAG

MERTK = MERTK (UniProt Q12866); experiment: as above
Chain of MERTK (Q12866 whole entry, looked up): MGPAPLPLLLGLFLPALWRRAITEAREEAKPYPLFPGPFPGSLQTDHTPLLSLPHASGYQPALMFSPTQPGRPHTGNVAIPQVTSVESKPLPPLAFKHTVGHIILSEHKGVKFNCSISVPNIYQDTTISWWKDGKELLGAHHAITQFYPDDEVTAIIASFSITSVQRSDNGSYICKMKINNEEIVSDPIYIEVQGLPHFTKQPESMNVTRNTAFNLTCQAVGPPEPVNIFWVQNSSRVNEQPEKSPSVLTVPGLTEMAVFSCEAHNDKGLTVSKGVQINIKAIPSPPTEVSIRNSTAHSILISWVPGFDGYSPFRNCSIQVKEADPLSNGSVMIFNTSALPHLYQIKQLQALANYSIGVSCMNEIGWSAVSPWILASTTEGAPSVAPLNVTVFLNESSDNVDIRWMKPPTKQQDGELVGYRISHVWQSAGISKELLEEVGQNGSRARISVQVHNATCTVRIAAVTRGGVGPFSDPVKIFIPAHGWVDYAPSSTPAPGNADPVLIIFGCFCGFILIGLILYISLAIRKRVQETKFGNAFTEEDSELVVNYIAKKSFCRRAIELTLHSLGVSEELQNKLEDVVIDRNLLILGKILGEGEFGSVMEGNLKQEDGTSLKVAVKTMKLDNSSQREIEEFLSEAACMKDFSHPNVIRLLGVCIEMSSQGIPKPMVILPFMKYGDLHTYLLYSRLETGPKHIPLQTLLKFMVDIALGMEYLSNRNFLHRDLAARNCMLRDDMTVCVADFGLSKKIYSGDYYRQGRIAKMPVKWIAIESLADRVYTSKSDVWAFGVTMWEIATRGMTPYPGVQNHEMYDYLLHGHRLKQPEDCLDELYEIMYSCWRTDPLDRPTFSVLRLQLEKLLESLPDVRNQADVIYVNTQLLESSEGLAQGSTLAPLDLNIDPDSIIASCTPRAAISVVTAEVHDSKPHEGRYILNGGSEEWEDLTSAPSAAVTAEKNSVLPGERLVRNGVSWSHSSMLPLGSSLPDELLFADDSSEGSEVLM

c-Abl (mouse) = experiment: as above
c-Src = experiment: as above
Grb2 SH2 = Grb2 SH2 (UniProt P62993); experiment: SH2 binding enrichment of the phosphorylated peptide, bacterial display (enrichment ratio); higher = better substrate or ligand; peptides without Tyr show the background
SHP2-C SH2 = experiment: as above
c-Src SH2 = experiment: as above
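For SH2 binding enrichment of the phosphorylated peptide, bacterial display in this document: peptide library displayed on the E. coli surface as eCPX fusions, selected cells deep-sequenced, score is each peptide's frequency after selection divided by its frequency in the input.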
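For phosphorylation enrichment, bacterial display in this document: 11-residue human phosphosite peptides and single-mutation variants displayed on the E. coli surface, counted by deep sequencing, each peptide's frequency after selection divided by its frequency in the unselected input library; frequency after pTyr selection over input frequency; kinase dosed for 20-30% of maximal phosphorylation in three min.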

Chain of EPHB2 (P29323 whole entry, looked up): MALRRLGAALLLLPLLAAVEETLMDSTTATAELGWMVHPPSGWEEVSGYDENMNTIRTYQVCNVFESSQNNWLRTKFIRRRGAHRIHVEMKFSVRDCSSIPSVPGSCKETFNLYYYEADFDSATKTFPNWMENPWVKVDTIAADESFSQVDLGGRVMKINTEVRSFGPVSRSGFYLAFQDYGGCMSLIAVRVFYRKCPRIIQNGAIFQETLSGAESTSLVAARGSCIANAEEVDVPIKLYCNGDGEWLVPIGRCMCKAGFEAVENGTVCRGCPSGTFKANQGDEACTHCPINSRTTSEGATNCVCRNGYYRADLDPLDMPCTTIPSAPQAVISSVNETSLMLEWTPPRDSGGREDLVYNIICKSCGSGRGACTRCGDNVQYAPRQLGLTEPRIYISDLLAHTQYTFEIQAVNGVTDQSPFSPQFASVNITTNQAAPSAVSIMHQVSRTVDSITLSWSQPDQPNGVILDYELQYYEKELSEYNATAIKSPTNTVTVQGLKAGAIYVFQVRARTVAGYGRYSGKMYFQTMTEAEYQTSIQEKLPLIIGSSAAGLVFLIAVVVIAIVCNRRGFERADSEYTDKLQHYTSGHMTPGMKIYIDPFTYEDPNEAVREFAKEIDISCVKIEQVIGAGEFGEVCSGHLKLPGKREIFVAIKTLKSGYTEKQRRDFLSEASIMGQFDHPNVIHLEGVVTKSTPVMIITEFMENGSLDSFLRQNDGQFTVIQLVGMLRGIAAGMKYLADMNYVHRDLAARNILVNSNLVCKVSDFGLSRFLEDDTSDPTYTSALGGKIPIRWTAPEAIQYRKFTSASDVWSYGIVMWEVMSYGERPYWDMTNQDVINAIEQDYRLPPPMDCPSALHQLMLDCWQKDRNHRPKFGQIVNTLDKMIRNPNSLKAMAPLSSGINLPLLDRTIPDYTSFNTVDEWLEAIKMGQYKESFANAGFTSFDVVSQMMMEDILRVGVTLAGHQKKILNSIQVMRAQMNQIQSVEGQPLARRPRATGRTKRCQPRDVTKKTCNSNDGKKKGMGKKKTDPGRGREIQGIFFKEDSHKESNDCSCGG

| SH2 binding enrichment (Grb2 SH2) | SH2 binding enrichment (SHP2-C SH2) | SH2 binding enrichment (c-Src SH2) | Sequence | phosphorylation enrichment (AncSZ) | phosphorylation enrichment (EPHB1) | phosphorylation enrichment (EPHB2) | phosphorylation enrichment (FGFR1) | phosphorylation enrichment (FGFR3) | phosphorylation enrichment (Fer (mouse)) | phosphorylation enrichment (Fes) | phosphorylation enrichment (Fyn) | phosphorylation enrichment (Hck) | phosphorylation enrichment (Jak2) | phosphorylation enrichment (MERTK) | phosphorylation enrichment (c-Abl (mouse)) | phosphorylation enrichment (c-Src) |
| --- | --- | --- | --- | --- | --- | --- | --- | --- | --- | --- | --- | --- | --- | --- | --- | --- |
| 0.757 | 0.717 | 0.595 | KVITDYFVDMK [MPP4_Y566_YF] | 0.897 | 0.429 | 0.547 | 0.748 | 0.795 | 0.451 | 1.36 | 0.455 | 0.561 | 0.858 | 0.439 | 0.673 | 0.435 |
| 0.73 | 2.48 | 1.25 | LAETSYVTVLE [MAGEA1_Y276_K278T] | 1.65 | 0.674 | 0.968 | 0.915 | 1.31 | 0.67 | 1.65 | 0.702 | 0.862 | 1.02 | 0.708 | 0.903 | 0.496 |
| 0.627 | 1.33 | 1.51 | LAIERYVVVSK [RHO_Y136_C140S] | 0.86 | 0.499 | 3.45 | 0.843 | 0.701 | 0.459 | 1.04 | 0.596 | 0.443 | 0.744 | 0.515 | 0.935 | 0.396 |
| 1.41 | 0.748 | 0.44 | LARDIYKNDFF [ROS1_Y2110_YF] | 2.31 | 0.962 | 0.933 | 0.68 | 0.592 | 1.14 | 2.15 | 1.47 | 0.599 | 2.38 | 1.57 | 1.31 | 2.29 |
| 0.427 | 0.739 | 0.541 | LARNMYDKEFF [MET_Y1230_D1228N_YF] | 1.03 | 0.706 | 0.592 | 0.602 | 0.62 | 0.541 | 1.01 | 0.529 | 0.694 | 1 | 0.578 | 0.793 | 0.626 |
| 0.953 | 0.836 | 0.521 | LEDEVYAQKMK [TPM2_Y261] | 2.79 | 2.92 | 1.08 | 1.25 | 1.97 | 1.91 | 2.74 | 2.37 | 2.62 | 2.5 | 0.889 | 1.49 | 1.22 |
| 0.963 | 0.613 | 0.529 | LEFGDCHPLKP [VPS35L_Y32_Y32C] | 1.63 | 0.863 | 0.802 | 0.763 | 1.52 | 1.24 | 1.97 | 0.841 | 0.777 | 1.16 | 0.472 | 0.884 | 0.602 |
| 0.85 | 0.831 | 0.432 | LEKISYVFMKR [SSX7_Y48_YF] | 1.9 | 1.65 | 1.21 | 0.969 | 1.42 | 0.879 | 2.51 | 0.963 | 1.14 | 1.72 | 0.538 | 0.811 | 0.581 |
| 0.989 | 0.842 | 0.554 | LFSDHYSPSGR [TMPRSS12_Y23_YF] | 0.654 | 0.545 | 0.452 | 0.446 | 0.459 | 0.351 | 0.574 | 0.39 | 0.455 | 0.473 | 0.382 | 0.331 | 0.363 |
| 1.03 | 0.635 | 0.897 | LHQSTYQRFDV [SLC7A14_Y693_YF] | 1.31 | 1.45 | 1.17 | 1.14 | 1.18 | 0.955 | 1.32 | 1.83 | 1.77 | 0.652 | 1.19 | 0.838 | 2.69 |
| 0.772 | 0.694 | 1.16 | LHQSTYQRYDV [SLC7A14_Y693] | 0.341 | 0.293 | 0.53 | 0.236 | 0.426 | 0.392 | 0.404 | 0.458 | 0.505 | 0.545 | 0.364 | 0.444 | 1.11 |
| 0.887 | 0.881 | 0.39 | LHSEAYLKFIE [PBRM1_Y1610_YF] | 1.56 | 0.877 | 0.881 | 0.939 | 1.21 | 1.1 | 1.51 | 0.856 | 0.813 | 1.37 | 0.556 | 0.886 | 0.486 |
| 0.939 | 1.11 | 0.44 | LLINKYGLSDH [SCP2_Y151_A155D] | 1.08 | 0.646 | 0.62 | 0.546 | 0.849 | 0.709 | 1.45 | 0.678 | 0.826 | 1.19 | 0.645 | 0.794 | 0.712 |
| 0.96 | 0.793 | 0.566 | LLKKVYLMLDN [STAT1_Y203_M202V] | 1.82 | 0.93 | 0.953 | 0.968 | 1.15 | 0.801 | 2.19 | 0.627 | 0.658 | 1.85 | 0.704 | 1.34 | 0.816 |
| 0.69 | 0.734 | 0.624 | LNPFIYSLRNC [OR1A2_Y288_W293C] | 1.45 | 0.826 | 1.24 | 0.902 | 1.2 | 1 | 2.72 | 4.37 | 5.22 | 1.11 | 1.04 | 0.792 | 6.28 |

Continued, sequence first:

| Sequence | SH2 binding enrichment (Grb2 SH2) | SH2 binding enrichment (SHP2-C SH2) | SH2 binding enrichment (c-Src SH2) | phosphorylation enrichment (AncSZ) | phosphorylation enrichment (EPHB1) | phosphorylation enrichment (EPHB2) | phosphorylation enrichment (FGFR1) | phosphorylation enrichment (FGFR3) | phosphorylation enrichment (Fer (mouse)) | phosphorylation enrichment (Fes) | phosphorylation enrichment (Fyn) | phosphorylation enrichment (Hck) | phosphorylation enrichment (Jak2) | phosphorylation enrichment (MERTK) | phosphorylation enrichment (c-Abl (mouse)) | phosphorylation enrichment (c-Src) |
| --- | --- | --- | --- | --- | --- | --- | --- | --- | --- | --- | --- | --- | --- | --- | --- | --- |
| KVKSIYFHTQG [AR_Y916_P914S] | 0.641 | 0.793 | 0.568 | 0.69 | 0.542 | 0.449 | 0.414 | 0.544 | 0.367 | 0.718 | 0.51 | 0.414 | 0.614 | 0.379 | 0.563 | 0.436 |
| KYLENYLNCLL [PLD2_Y169_R172C] | 0.983 | 0.835 | 0.747 | 1.1 | 1.18 | 0.776 | 0.989 | 1.05 | 0.707 | 1.47 | 0.476 | 0.456 | 1.28 | 0.52 | 1.03 | 0.498 |
| LAEMNYVHRDL [EPHB1_Y740] | 0.882 | 0.578 | 0.403 | 1.32 | 0.441 | 0.632 | 0.412 | 0.503 | 0.32 | 0.709 | 0.529 | 0.362 | 1.4 | 0.659 | 1.15 | 0.432 |
| LANNEYYFQVC | 0.93 | 0.576 | 0.431 | 3.4 | 1.63 | 1.56 | 15.7 | 12.9 | 1.11 | 1.69 | 1.43 | 1.19 | 2.34 | 2.08 | 1.02 | 1.94 |
| LASLIYNFVLF [AQP6_Y231] | 1.11 | 0.989 | 0.692 | 1.73 | 1.93 | 4.52 | 3.53 | 3.34 | 14.5 | 2.2 | 7.62 | 5.89 | 1.51 | 7.85 | 4.1 | 7.23 |
| LAVGDYMRRQK [ATM_Y1915_V1913G] | 0.597 | 0.695 | 0.37 | 0.696 | 0.441 | 0.41 | 0.437 | 0.411 | 0.504 | 0.734 | 0.545 | 0.504 | 0.691 | 0.476 | 0.555 | 0.503 |
| LFQAKYQIRFR [CRLF1_Y272_YF] | 1.19 | 1.32 | 0.813 | 1.83 | 0.698 | 0.69 | 1.03 | 1.35 | 0.972 | 1.6 | 0.643 | 0.524 | 1.64 | 0.868 | 1.31 | 1.02 |
| LGSVVYAHSKE [KCNQ2_Y226] | 0.809 | 0.754 | 0.467 | 0.527 | 0.473 | 0.437 | 0.445 | 0.419 | 0.416 | 0.596 | 0.407 | 0.403 | 0.559 | 0.424 | 0.449 | 0.413 |
| LIHLHYIRKDY [BBS4_Y43] | 1.69 | 1.88 | 1.71 | 1.21 | 0.602 | 0.63 | 0.517 | 0.763 | 0.447 | 1.14 | 0.548 | 0.444 | 0.857 | 0.377 | 0.632 | 0.393 |
| LKEIHYPPYTD [ALDH3B2_Y362] | 0.896 | 0.975 | 0.654 | 1.18 | 0.735 | 0.744 | 0.645 | 0.826 | 0.584 | 1.17 | 0.718 | 0.929 | 1.01 | 0.573 | 0.763 | 0.917 |
| LKVQVYILGRE [ASS1_Y359_G356V] | 1.46 | 0.968 | 0.804 | 3.58 | 1.58 | 1.88 | 1.34 | 1.95 | 1.59 | 5.15 | 1.13 | 1.49 | 3.33 | 1.36 | 2.44 | 1.39 |
| LLANAYIFVVQ [L1CAM_Y418_YF] | 1.31 | 0.605 | 0.396 | 1.46 | 0.757 | 1.13 | 1 | 1.18 | 0.793 | 2.13 | 0.606 | 0.569 | 1.79 | 0.482 | 1.44 | 0.538 |
| LNPDGYEKAFE [CPXM2_Y427_YF] | 0.868 | 0.77 | 3.95 | 1.15 | 0.667 | 0.988 | 0.769 | 0.704 | 0.557 | 1.49 | 0.576 | 0.586 | 0.995 | 0.483 | 1.05 | 0.738 |
| LNPDGYKKAYE [CPXM2_Y427_E428K] | 0.744 | 0.613 | 0.444 | 0.905 | 0.605 | 0.749 | 0.86 | 1.46 | 0.619 | 1.14 | 0.676 | 0.515 | 1 | 0.734 | 1.35 | 0.513 |
